Earlier results as cited in paper PMC4379523.

Biological target: ribosomal protein L3 N-terminal peptide (L3Δ21) 1-21 (Saccharomyces cerevisiae) (UniProt P14126)
Test: SPR

Chain of UniProt P14126 (P14126 1-21, stated change not applied): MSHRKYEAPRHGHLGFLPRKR

Substance: Pokeweed antiviral protein (PAP) (from UniProt P10297)
- Kd: 24.8 nM
